The record followed here is patent publication US20070041999A1 (published 2007).

The data set deals with the molecule itself. The experiment in a line: disassembly by dialysis, size exclusion chromatography / SEC-HPLC; self-association of capsid protein. Here is the method:
Dissasembly of plant produced CCMV virus particles: Purified CCMV was disassembled by dialysis against buffer A (50 mM Tris HCl pH7.5, 500 mM CaCl₂, 1 mM DTT, 0.2 mM PMSF) for 16-29 hours at 4° C. The disassembled virus was centrifuged at 14,000 rpm for 15 min at 4° C. to pellet the viral RNA. The remaining supernatant was dialyzed against buffer B (200 mM Tris HCl pH7.5, 1M NaCl, 1 mM DTT, 0.2 mM PMSF) for 2 hours at 4° C. The CCMV dissasembled into capsid protein dimers that were further purified by FPLC Superose 12 size exclusion chromatography. The diassambled CCMV was analyzed by SEC-HPLC (FIG. 8).

B1: Wild type CCMV coat protein encoded by sgRNA4 (other)
chain: STVGTGKLTRAQRRAAARKNKRNTRVVQPVIVEPIASGQGKAIKAWTGYSVSKWTASCAAAEAKVTSAITISLPNELSSERNKQLKVGRVLLWLGLLPSVSGTVKSCVTETQTTAAASFQVALAVADNSKDVVAAMYPEAFKGITLEQLTADLTIYLYSSAALTEGDVIVHLEVEHVRPTFDDSFTPVY
notes: also called CCMV CP; CCMV capsid protein
As for B1, the binding result is on record as “binds”.
